Biological target: HA-DGAT2 (hemagglutinin-tagged tung tree DGAT2) (Vernicia fordii (tung tree)) (UniProt Q0QJH9)
Assay: SDS-PAGE and immunoblotting of microsomal membranes

stoichiometry N: 2
Substance: HA-DGAT2 (hemagglutinin-tagged tung tree DGAT2) (from UniProt Q0QJH9 2-322) (enzyme)

Reference: paper PMC11338361
